For test [1], the target named is microtubules grown from purified bovine brain tubulin (bovine) (UniProt Q6B856). The test is described as follows: optical trap rupture force assay; benzonase-treated kinetochores on anti-penta-His beads; dynamic microtubules grown from coverslip-anchored GMPCPP seeds; BRB80, 1 mM GTP, 23°C; force ramp 0.25 pN/s until detachment.
For test [2] the target is unchanged. Nature of the test: optical trap rupture force assay; untreated kinetochores on anti-penta-His beads; dynamic microtubules grown from coverslip-anchored GMPCPP seeds; BRB80, 1 mM GTP, 23°C; force ramp 0.25 pN/s until detachment.

Chain of UniProt Q6B856 (Q6B856 whole entry, looked up): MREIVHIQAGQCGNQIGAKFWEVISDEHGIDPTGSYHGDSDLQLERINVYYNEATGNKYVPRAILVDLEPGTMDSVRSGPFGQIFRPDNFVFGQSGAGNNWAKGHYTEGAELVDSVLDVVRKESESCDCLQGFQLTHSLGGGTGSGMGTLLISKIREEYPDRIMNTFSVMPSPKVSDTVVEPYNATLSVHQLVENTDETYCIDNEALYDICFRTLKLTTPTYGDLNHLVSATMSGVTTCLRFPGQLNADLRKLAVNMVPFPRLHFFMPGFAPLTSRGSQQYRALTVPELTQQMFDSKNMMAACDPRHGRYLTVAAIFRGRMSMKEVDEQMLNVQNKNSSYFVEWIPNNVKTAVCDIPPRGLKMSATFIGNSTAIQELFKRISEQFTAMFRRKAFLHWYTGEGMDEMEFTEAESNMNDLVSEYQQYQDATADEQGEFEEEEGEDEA

Consider “K. marxianus kinetochore particles purified via Dsn1-6His-3M3DK (from UniProt A0ABX6F0Z3 1-547) (complex)”, for which the median rupture force in test [1] stood at 6.4 pN; in test [2] it was 7.5 pN.

On to “S. cerevisiae kinetochore particles purified via Dsn1-6His-3M3DK (from UniProt P40568 1-576) (complex)”, for which the median rupture force in test [2] came to 7.2.

(Values after PMC12045370.)
